According to patent US20110319338A1, “PEPTIDES THAT BIND EUKARYOTIC TRANSLATION INITIATION FACTOR 4E” (The Board of Regents of the University of Texas System, priority 2008, published 2011):
Square brackets hold non-standard residues; d marks the D form. Ends that are not written are not given here.

Legend:
[1] = molecular target: T1, binding of eIF4E to eIF4G (Homo sapiens, UniProt P06730); assay: Immunoprecipitation with eIF4E antibody and Western blot with eIF4G antibody, OVCAR-3 cell lysate incubated with peptide; conditions: peptide 3 micromoles per liter, 250 micrograms OVCAR-3 cell lysate
T1 construct: endogenous in cells; host or cells: OVCAR-3 cell lysate
T1 sequence (P06730 2-217 limits assumed): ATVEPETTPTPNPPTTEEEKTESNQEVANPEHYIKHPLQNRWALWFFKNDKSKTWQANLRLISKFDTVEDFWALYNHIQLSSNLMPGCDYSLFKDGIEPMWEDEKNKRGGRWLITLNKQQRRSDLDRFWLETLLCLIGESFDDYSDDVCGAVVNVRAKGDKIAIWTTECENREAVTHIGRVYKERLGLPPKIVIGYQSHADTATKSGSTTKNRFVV
Description: (§1) FIGS. 1A-1G. 4EBP peptides bind eIF4E and inhibit binding of eIF4E to eIF4G. (FIG. 1A) Sequences of peptides comprising residues 49 to 68 of 4EBP1 and 4EBP2. (FIG. 1B) Biotinylated peptides (3 micromoles per liter) were incubated with 250 micrograms of OVCAR-3 cell lysate. Peptides were pulled-down using streptavidin-agarose. Precipitates (P) and supernatants (S) were analyzed by Western blot using eIF4E antibody. In (FIG. 1C), immunoprecipitation was performed using eIF4E antibody, and Western blot performed using eIF4G antibody. (FIG. 1D) Sequences of wild-type and mutant 4EBP peptides fused to TAT (mutant residues are highlighted). (FIG. 1E) OVCAR-3 cells were treated with biotinylated peptides (3 micromoles per liter, final concentration) for 16 hours. Internalized peptides were detected by staining fixed cells with Texas Red-conjugated streptavidin. Nuclei were visualized by staining with 4′,6-Diamidino-2-Phenylindole (DAPI). (FIGS. 1F and 1G) OVCAR-3 cell lysates were incubated with peptides as described for FIG. 1B. In (FIG. 1F), immunoprecipitation was performed using streptavidin-agarose and Western blot performed using eIF4E antibody. In (FIG. 1G), immunoprecipitation was performed using eIF4E antibody, and Western blot performed using eIF4G antibody.
(§2) FIGS. 3A-3H. Uptake, binding and inhibitory effects of [DLys6]GnRH-4EBP fusion peptides. (FIG. 3A) Sequences of [DLys6]GnRH, and wild-type and mutant 4EBP1 peptides fused to the agonist. (FIG. 3B) Western blot of GnRH-RI levels in OVCAR-3, ES-2, MDA-MB-231, BJ, HUVEC and SKOV3 cells. (FIG. 3C) Detection of biotinylated peptides in OVCAR-3 and SKOV3 by Texas Red-conjugated streptavidin at 16 hours after peptide addition (3 micromoles per liter). In (FIGS. 3D and 3E), biotinylated peptides were incubated with OVCAR-3 cell lysate as described in FIG. 1. In (FIG. 3D), peptide was pulled down using streptavidin-agarose. Precipitates (P) and supernatants (S) were analyzed by Western blot using eIF4E antibody. In (FIG. 3E), immunoprecipitation was performed using eIF4E antibody, and Western blot performed using eIF4G antibody. (FIG. 3F) R-Luc and F-Luc activities were assayed in ES-2-DualLuc cells at 6 hours after addition of the indicated concentrations of peptides, and are expressed relative to the respective luciferase activities in cells incubated without peptide. Shown are results of triplicate assays performed independently two times, and the statistical significance of differences in relative R-Luc and F-Luc activities in cells treated with peptide at a concentration of 10 micromoles per liter (FIG. 3G) Cells of GnRH-RI-positive and -negative lines were treated with the indicated concentrations of peptides. […]

[2] = molecular target: T2, eIF4E (Homo sapiens, UniProt P06730); assay: Streptavidin-agarose pull-down of biotinylated peptide from OVCAR-3 cell lysate, Western blot with eIF4E antibody; format: binding; conditions: biotinylated peptide 3 micromoles per liter, 250 micrograms OVCAR-3 cell lysate
T2 construct: endogenous in cells; host or cells: OVCAR-3 cell lysate
T2 sequence (P06730 whole entry): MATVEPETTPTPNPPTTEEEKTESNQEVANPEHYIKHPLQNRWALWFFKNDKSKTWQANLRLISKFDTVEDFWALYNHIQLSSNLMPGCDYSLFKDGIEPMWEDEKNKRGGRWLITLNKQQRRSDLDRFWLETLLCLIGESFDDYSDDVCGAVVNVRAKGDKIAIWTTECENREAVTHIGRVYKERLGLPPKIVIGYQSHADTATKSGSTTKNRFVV
Description: as §1, §2

[3] = molecular target: T3, binding of eIF4E to eIF4G in SKOV3+GnRH-RI cells (Homo sapiens, UniProt P06730); assay: eIF4E immunoprecipitation / eIF4G Western blot of lysates of peptide-treated cells; format: cell-based; conditions: 10 micromoles per liter, 24 hours
T3 construct: endogenous in cells; host or cells: SKOV3+GnRH-RI cells
T3 sequence (P06730 2-217 limits assumed): as the sequence (P06730 2-217 limits assumed) above
Description: FIGS. 8A-8D. Effect of [DLys6] GnRH-4EBP1 peptide in SKOV3 cells stably expressing GnRH-RI. (FIG. 8A) Western blot analysis of GnRH-RI in parental SKOV3 cells and SKOV3 cells transfected with GnRH-RI. In (FIG. 8B), SKOV3+GnRH-RI cells were treated with biotinylated peptides at a final concentration of 10 micromoles per liter or incubated without peptide. At 24 hours after treatment, lysates were prepared from cells. Peptide was pulled-down using streptavidin-agarose. Precipitates and supernatants were analyzed by Western blot using eIF4E antibody. (FIG. 8C) parental SKOV3, SKOV3+GnRH-RI and ES-2 cells were treated with the indicated peptides (10 micromoles per liter) or incubated without peptide. At 24 hours after treatment, lysates were prepared from cells. Immunoprecipitation was performed using eIF4E antibody, and Western blot of precipitates was performed using eIF4G antibody. Western blot of whole cell lysates of treated cells was performed using antibodies to eIF4G, eIF4E and actin. (FIG. 8D) TUNEL-staining of parental SKOV3 and SKOV3+GnRH-RI cells at 3 days following treatment with peptide at a final concentration of 30 micromoles per liter.
Immunoprecipitation (IP) and Western blotting. Biotinylated peptides were incubated with 250 micrograms of cell lysate at a final concentration of 3 micromoles per liter for 6 hours at 4° C. […]

In the case of “[DLys6]GnRH: GnRH agonist with a D-amino acid substitution at position 6; GnRH-RI-targeting moiety (QHWSY[dK]LRPG; not fully specified (residue 1, C-terminus); ends and bridges not checked)”, the “inhibition of eIF4E binding to eIF4G” value [1] is reported as “not inhibited”, the “binding of peptide to eIF4E” value [2] is reported as “did not bind” and the “binding of eIF4E to eIF4G in treated cells” value [3] is reported as “not inhibited”.
